Test results: the DeepSol protein solubility set

Assay: soluble on expression in E. coli; label from the status in PepcDB or PDB records

Sequence	soluble on expression in E. coli
MSLSHKSKKLLLVDDDQTVLKLMTEVLTDFGHCVTSVPSARHALNHFTSAGQAFDLLITDICMPGMNGVELIKAVRAHNGTLPIIAISGFSEPEDQNEIAHYDARMLTKPVDFQTLKQTIDALEGHHHHHH	not soluble
MSLSIFEHFQARYEAAKDEELSIQDFLALCKENKSAYANAAERLLLAIGEPEMIDTSKHSRLSRIFSNRVIARYKTFEDFYGMEEAIEQIVAYLKHAAQGLEERKQILYLLGPVGGGKSSLAEKLKALMQQMPIYVLSANGQRSPVNDHPFCLFDVNEDGELLKQEYGIDRRYLRSIMSPWAAKRLHEFGGDITKFKVVKVRPSILDQIAVAKTEPGDENNQDISSLVGKVDIRKLEHFSQDDPDAYSYSGALCRANQGLMEFVEMFKAPIKVLHPLLTATQEGNYNGTEGLSALPFDGMILAHSNESEWQTFRNNKNNEAFLDRVYIVKVPYCLRVSEEVKIYQKLLDHSELSKAPCAPSTLDLLAQFSVLSRLKVPENSSLFSKMRVYDGETLKDTDPKAKSYQEYRDYAGVDEGMSGLSTRFAFKILSRVFNFDHSEVAANPVHLFYVIEQQVEREGHHHHHH	not soluble
MSLSKKRAGAMKNYGAGDQFKATKALTFTILHNDMPTYPMKRDWLFWKEVTERTGVTLKPTSVPASDYDKKRSLLIGAGDAPLLIPKTYPGQETAFVSSGAILPVSEYVRLMPNFRAKVEKWGLEGDLDSIRQADGNYYVLPGLHEKVKSGYSLSFRTDVLKKHGLDLPTTWDQVYDVLKALKAAYPDVYPFSDRWGQPTPGGALLNYLGPAFGTKAGWSYANTAWDTKARKYVFTGATDEYRQMLEYLRKLVAEKLMDPESFTQSDDDAVRKLLSGKSFVISANPQELVQNYRYNLGKQVKGATIEMIPVPIGPTGEVIVGSRLENGLMVAGRAAEGDSFVAMMQFVDWLWYSDGGQEFAKYGVEGVTYTSSGAGRYKVADGISYMGSDPSAPKDLQKDYGFTNGEFAYGGSWALVSSSFSPDEKAFQDAMAGRKLLPVDPAHPLKADEQEQATLWDTPLKDHVTQNTLKFALGKRPMSEWDAYLAELKAKNMQRYIDLHNTAYERFKKEHEGHHHHHH	soluble
MSLSKLGIIGLGKVGTQVLTDVQQLNLFSEIILIDDRADVASGEALDHIHSQGLINTAHIKIRSGVYQDLTDADFIVIAASEATDKNNGDRTLLAQGNHDIIKGIMSQIAEVTQEAVVILISNPVDSMVYFANQIDYPAHKIIGTGTALETSRFKTIIADHYQIDPNNVEAFVIGEHGQHAIPVWSKVHIHGMELSEFEALSDRPAIDKSHISSIINEVSMDVFYQKGWTNAAISKVTSFLIQSIALDQRTITPLTSLSSEYGLEDGAFSLPTLIDKKGIVQRFAITLDKEEERELKEAYEYIRQTIHTAQEGHHHHHH	soluble
MSLSKPLYVFDLDDTLIDGDCAMIWNAFLAEKGIATERNFVEEDRRRMALYAQGKMDMAEYIAFAMQPLAQVPSTTVQDWVEECVSRWIVPKQFAQARELIAQLKQQGNTCLIISASVSFLVKTVAQRFGIEHALGIDLVSQNGCYSGNIEGVASYREGKVLRLQQWLAEQNETYHDVHFYTDSINDLPLCQHADFAYVVNPCPRLKAQAEQHGWPILSWAVEGHHHHHH	soluble
MSLSKSDDGDSEESFSISVQSGFEAMSQELCIVMCLKDLTSIVDIKTSSRPAMIGSLTDGSTETFWESGDEDKNKTKNITINCVKGINARYVSVHVDNSRDLGNKVTSMTFLTGKAVEELCRIKQVDLDSRHIGWVTSELPGGDNQIIKIELKGPENTLRVRQVKVLGWKDGESTKIAGQISASVAQQRSCEAETLRVFRLITSQVFGKLISGDAEPTPEQEEKALLSSPEGEEKATSDADLKEHMVGIIFSRSKLTNLQKQVCAHIVQAIRMEATRVREEWEHAISSKENANSQPSDEDASSDAYCFELLSMVLALSGSNVGRQYLAQQLTLLQDLFSLLHTASPRVQRQVTSLLRRVLPEVTPNRLASIIGVKSLPPADISDIIHSTEKGDWNKLGILDMFLGCIAKALTVQLKAKGTTITGTAGTTVGKGVTTVTLPMIFNSSYLRRGESHWWMKGSTPTQISEIIIRLIKDMAAGHLSEAWSRVTKNAIAETIIALTKMEEEFRSPVRCIATTRLWLALASLCVLDQDHVDRLSSGRWMGKDGQQKQMPMCDNHDDGETAAIILCNICGNLCTDCDRFLHLHRRTKTHQRQVFKEEEEAIKVDLHEGCGRTKLFWLMALADSKTMKAMVEFREHTGKPTTSSSEACRFCGSRSGTELSAVGSVCSDADCQEYAKIACSKTHPCGHPCGGVRNEEHCLPCLHGCDKSATTLKQDADDMCMICFTEALSAAPAIQLDCSHVFHLQCCRRVLENRWLGPRITFGFISCPICKNKINHIVLKDLLDPIKELYEDVRRKALMRLEYEGLHKSEAITTEGHHHHHH	not soluble
MSLSKTLSMLALLPFAAQVFAAPAEFWYSHGGATGSAIADLCRSFNAQREDGDRLHCIRQGSYEQTLQKTVAAYRAGIGPALVEIYDVATPDMLLGGATLPVEAIMAGHQRAYSDDTFLPALRRYYSDDHGALAAQPFAASTAVLYTHRNALAAAGISEPPATWEAFATALRALKKNGHACPVVSEFSPWIWLEQTSAAQGTEVAVRAAGTERYQFDKGAHLRLMNDLAQWTAEGLVVHEDSTRSGQQALAFATDDCAMLIDSTGAWNIVHSTLKSDIDVTALPIYANTQRRTNAPGGSSLWVMRGHAARDYRLVSEFLAFVLQPDNQLVFSARTGYLPVTQAAAARLQSAGREPSAVMVGLAALHDIDGQPSKPLRCGFITLMRLVWSQEMENALAGRQSVEHALRQTTLRANELLSLFQQMHQAQASNESDGATEGHHHHHH	soluble
MSLSLDTAREAVQKKPLLYDKGGEEHYNVISAFIKSMRGSDPDGALYWLARMIEAGEDPIFILRRMVILASEDIGNADPRALQVAVTALQGFQLVGMPEGRIIIGQAVTYLATAPKSNASYVGIDAALAEVRKSGALPVPLHIRNAPTRLMKDLGYGTGYRYAHDYAEGYVAQDYLPDQIKGRKYYDPTGHGYEKSIKERMEWLKGKKEGHHHHHH	not soluble
MSLSNDGRRQIIESAGRSMAEGYAETLRAIDPTLAINLFSPADEADRLPAPLSSYDGVVVTGSSLHVYRTEPAVTRQIDFLREVFDAGVPVFGSCWGLQLGVVAAGGTVIPNPKRREVPFARSVTLTAAGKTHQMHQSRPAAFDALAIHLDVVSVLPPDSVVTAFNDMAAVQAVEFRSGRSLFWGVQYHPEFELPYMASILRRNASSLVAEAAFSSEGELVEMVDAMDSHGNDGDRVRHPSLLPDDVLDRHTRTIEIANWLKMLSSGEGHHHHHH	not soluble
MSLSNDISILFVEDDKEVRAQISDFLTSNMFKDVYVANNGKDGLLKYNIHKPDIVLSDLNMPIMDGLEMSRAIKALDENTPILLITSNFEKNVTEAAVDIGIEGCLFKPLSLNRVEKILTKYIEKIMFQREFKNKQKLLEQYKSIIDISSSVTKTDINGIITYVNNPFCDMSGYSKDELLGKNHTIISHPDNSKEFYEEIYSTLRDKKIWRGHIKNRRKNGDSYYESSVIAPILDENDEIVECISLKQDITELYAEGHHHHHH	soluble
MSLSNGELAILVFGYPETMANQVIAYFQEFGTILEDFEVLRKPQAMTVGLQDKQFVPIFSGNSWTKITYDNPASAVDALLENGAVFNGVLLGVIPYTKDAVERLQKRKLTSSEDIGSGITTAAAETKHKDQGTIENDIPSQYMAKLDIKDGSNLFISTNTTSGTKVDPKKEQKKGVVGTVLRYFFGFNEGHHHHHH	soluble
MSLSNIAVSEKDLQRFCRDLLKQSLPDEEAEVIAETLVDADLRGVTSHGVQRVAGYLKRMEDGIIERKTDISVVQDSFATALLDANNGWGQVAGVKAMEMAIQKAGQYGTSFVGVSNSNHFGTASFYTRMAAEKGFIGISMTNASPIMVPFGAKEPSLGPNPISISIPAGEGKKPIILDMSTSNVARGKIMVAKKNKESIPEGWAITKDGKQTTDADEAWEGFVLPMGPKGSGLAIIIDILSGVLTGSLFGKRIPRQYDDPYPQQLGHLFGAINIENFGEPELFYQNVLEKIEETISSEPSEGFDQVYMPGDMESQRKKEYKENGIPLSQEIINELRKTGEKYGVDLEHYLSQNKQREGHHHHHH	soluble
